Legend:
O6 = molecular target: T1, O6; assay: two-hybrid library CC0; details: mean of both orientations;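 note: natural log of median RNA to DNA barcode read ratio; higher means stronger binding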
T1 chain: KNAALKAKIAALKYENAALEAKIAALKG

O8 = molecular target: T2, O8; assay: two-hybrid library CC0; details: mean of both orientations;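 note: natural log of median RNA to DNA barcode read ratio; higher means stronger binding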
T2 chain: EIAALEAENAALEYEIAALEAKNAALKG

O7 = molecular target: T3, O7; assay: two-hybrid library CC0; details: mean of both orientations;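 note: natural log of median RNA to DNA barcode read ratio; higher means stronger binding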
T3 chain: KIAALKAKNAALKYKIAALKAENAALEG

O9 = molecular target: T4, O9; assay: two-hybrid library CC0; details: mean of both orientations;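 note: natural log of median RNA to DNA barcode read ratio; higher means stronger binding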
T4 chain: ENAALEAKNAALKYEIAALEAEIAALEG

4H570-bH = molecular target: T5, 4H570-bH; assay: two-hybrid library CCNG1;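 note: natural log of median RNA to DNA barcode read ratio; higher means stronger binding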
T5 chain: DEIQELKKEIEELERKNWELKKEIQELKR

4H3817-bH = molecular target: T6, 4H3817-bH; assay: two-hybrid library CCNG1;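 note: natural log of median RNA to DNA barcode read ratio; higher means stronger binding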
T6 chain: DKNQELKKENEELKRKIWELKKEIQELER

4H850-bH = molecular target: T7, 4H850-bH; assay: two-hybrid library CCNG1
T7 chain: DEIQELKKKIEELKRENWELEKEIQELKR

4H906-bH = molecular target: T8, 4H906-bH; assay: two-hybrid library CCNG1
T8 chain: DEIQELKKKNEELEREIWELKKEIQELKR

4H3974-bH = molecular target: T9, 4H3974-bH; assay: two-hybrid library CCNG1
T9 chain: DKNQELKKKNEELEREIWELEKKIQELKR

4H584-bH = molecular target: T10, 4H584-bH; assay: two-hybrid library CCNG1
T10 chain: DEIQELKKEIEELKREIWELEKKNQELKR

4H3638-bH = molecular target: T11, 4H3638-bH; assay: two-hybrid library CCNG1
T11 chain: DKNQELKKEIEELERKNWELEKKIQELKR

4H619-bH = molecular target: T12, 4H619-bH; assay: two-hybrid library CCNG1
T12 chain: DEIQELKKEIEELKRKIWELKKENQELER

P8SHb = molecular target: T13, P8SHb; assay: two-hybrid library CCNG1
T13 chain: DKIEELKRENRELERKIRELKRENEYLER

P9SHb = molecular target: T14, P9SHb; assay: two-hybrid library CCNG1
T14 chain: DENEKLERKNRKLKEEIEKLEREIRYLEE

4H687-bN = molecular target: T15, 4H687-bN; assay: two-hybrid library CCNG1
T15 chain: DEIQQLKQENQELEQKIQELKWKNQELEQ

4H754-bN = molecular target: T16, 4H754-bN; assay: two-hybrid library CCNG1
T16 chain: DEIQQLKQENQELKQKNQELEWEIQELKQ

4H883-bN = molecular target: T17, 4H883-bN; assay: two-hybrid library CCNG1
T17 chain: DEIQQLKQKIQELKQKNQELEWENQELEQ

4H967-bN = molecular target: T18, 4H967-bN; assay: two-hybrid library CCNG1
T18 chain: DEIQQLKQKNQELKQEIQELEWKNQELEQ

4H908-bN = molecular target: T19, 4H908-bN; assay: two-hybrid library CCNG1
T19 chain: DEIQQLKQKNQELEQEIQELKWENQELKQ

4H717-bN = molecular target: T20, 4H717-bN; assay: two-hybrid library CCNG1
T20 chain: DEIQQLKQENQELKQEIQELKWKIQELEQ

4H918-bN = molecular target: T21, 4H918-bN; assay: two-hybrid library CCNG1
T21 chain: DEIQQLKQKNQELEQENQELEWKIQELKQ

4H72-bN = molecular target: T22, 4H72-bN; assay: two-hybrid library CCNG1
T22 chain: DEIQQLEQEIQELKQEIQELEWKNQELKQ

4H953-bN = molecular target: T23, 4H953-bN; assay: two-hybrid library CCNG1
T23 chain: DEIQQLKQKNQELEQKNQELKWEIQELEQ

4H797-bN = molecular target: T24, 4H797-bN; assay: two-hybrid library CCNG1
T24 chain: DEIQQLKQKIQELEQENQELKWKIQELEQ

4H607-bN = molecular target: T25, 4H607-bN; assay: two-hybrid library CCNG1
T25 chain: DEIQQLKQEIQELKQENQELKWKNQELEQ

4H3364-bH = molecular target: T26, 4H3364-bH; assay: two-hybrid library CCNG1
T26 chain: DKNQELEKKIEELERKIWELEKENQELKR

4H796-bH = molecular target: T27, 4H796-bH; assay: two-hybrid library CCNG1
T27 chain: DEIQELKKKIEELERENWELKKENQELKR

4H949-bH = molecular target: T28, 4H949-bH; assay: two-hybrid library CCNG1
T28 chain: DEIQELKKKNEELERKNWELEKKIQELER

4H3297-bH = molecular target: T29, 4H3297-bH; assay: two-hybrid library CCNG1
T29 chain: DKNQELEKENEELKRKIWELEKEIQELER

4H3041-bH = molecular target: T30, 4H3041-bH; assay: two-hybrid library CCNG1
T30 chain: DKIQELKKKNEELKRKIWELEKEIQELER

4H730-bH = molecular target: T31, 4H730-bH; assay: two-hybrid library CCNG1
T31 chain: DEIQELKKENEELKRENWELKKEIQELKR

4H2931-bH = molecular target: T32, 4H2931-bH; assay: two-hybrid library CCNG1
T32 chain: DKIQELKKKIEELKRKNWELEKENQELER

4H56-bH = molecular target: T33, 4H56-bH; assay: two-hybrid library CCNG1
T33 chain: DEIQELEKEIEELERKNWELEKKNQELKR

4H349-bH = molecular target: T34, 4H349-bH; assay: two-hybrid library CCNG1
T34 chain: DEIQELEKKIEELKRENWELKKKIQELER

4H3381-bH = molecular target: T35, 4H3381-bH; assay: two-hybrid library CCNG1
T35 chain: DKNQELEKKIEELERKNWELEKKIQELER

B1: O6 (peptide)
chain: KNAALKAKIAALKYENAALEAKIAALKG
Work on B1 yielded an interaction score (O6) of -2.7, an interaction score (O8) of -1.78 and an interaction score (O7) of -2.72. The interaction score (O9) was -2.41.

B2: 4H3638-bH (peptide)
chain: DKNQELKKEIEELERKNWELEKKIQELKR
B2 was tested, and the interaction score (4H570-bH) was -0.4, the interaction score (4H3817-bH) was -0.0824 and the interaction score (4H850-bH) was 1.04. For the same binder, the interaction score (4H906-bH) was -0.762, the interaction score (4H3974-bH) was -0.916 and the interaction score (4H584-bH) was -0.722. The interaction score (4H3638-bH) was -1.34 and the interaction score (4H619-bH) was -1.47.

B3: P8SHb (peptide)
chain: DKIEELKRENRELERKIRELKRENEYLER
Work on B3 yielded an interaction score (P8SHb) of -0.644 and an interaction score (P9SHb) of 0.191.

B4: 4H607-bN (peptide)
chain: DEIQQLKQEIQELKQENQELKWKNQELEQ
With B4 the interaction score (4H687-bN) was -1.48, the interaction score (P8SHb) was -1.61 and the interaction score (4H754-bN) was -1.32. For the same binder, the interaction score (4H883-bN) was -0.644, the interaction score (4H967-bN) was -0.227 and the interaction score (4H908-bN) was -0.294. It also gave an interaction score (4H717-bN) of -1.11, an interaction score (4H918-bN) of 0.0461 and an interaction score (4H72-bN) of -1.65. For the same binder, the interaction score (4H953-bN) was -1.56, the interaction score (4H797-bN) was -0.52 and the interaction score (4H607-bN) was 0.145.

B5: 4H2931-bH (peptide)
chain: DKIQELKKKIEELKRKNWELEKENQELER
Binder B5 has an interaction score (4H3364-bH) of -0.507, an interaction score (4H796-bH) of -0.865 and an interaction score (4H949-bH) of -0.384. The interaction score (4H3297-bH) was 0.571, the interaction score (4H3041-bH) was -0.279 and the interaction score (4H730-bH) was -0.532. For the same binder, the interaction score (4H2931-bH) was -0.492, the interaction score (4H56-bH) was -0.623 and the interaction score (4H349-bH) was -0.83. For the same binder, the interaction score (4H3381-bH) was -0.508.
